{"source": "the supplement of paper PMC10567573", "parents": {"B1": {"name": "FUT8 (parent)", "chain": "YPSYKVREKIETVKYPTYPEAEK"}}, "data": [{"variants_of": "B1", "assay": "protein stability index of a GFP-peptide fusion (GPS, HEK-293T) (PSI 1-6); higher = more stable", "details": "c terminus: native", "values": [{"variant": "YPSYKVREKIETCKYPTYPEAEK", "note": "[V13C]", "protein stability index": 4.12}, {"variant": "YPSYKVREKIETLKYPTYPEAEK", "note": "[V13L]", "protein stability index": 4.29}, {"variant": "YPSYKVREKIETGKYPTYPEAEK", "note": "[V13G]", "protein stability index": 4.66}, {"variant": "YPSYKVREKIETTKYPTYPEAEK", "note": "[V13T]", "protein stability index": 4.18}, {"variant": "YPSYKVREKIETRKYPTYPEAEK", "note": "[V13R]", "protein stability index": 4.34}, {"variant": "YPSYKVREKIETFKYPTYPEAEK", "note": "[V13F]", "protein stability index": 3.77}, {"variant": "YPSYKVREKIETMKYPTYPEAEK", "note": "[V13M]", "protein stability index": 3.7}, {"variant": "YPSYKVREKIETNKYPTYPEAEK", "note": "[V13N]", "protein stability index": 4.26}, {"variant": "YPSYKVREKIETDKYPTYPEAEK", "note": "[V13D]", "protein stability index": 4.64}, {"variant": "YPSYKVREKIETYKYPTYPEAEK", "note": "[V13Y]", "protein stability index": 3.72}, {"variant": "YPSYKVREKIETHKYPTYPEAEK", "note": "[V13H]", "protein stability index": 3.97}, {"variant": "YPSYKVREKIETWKYPTYPEAEK", "note": "[V13W]", "protein stability index": 3.04}, {"variant": "YPSYKVREKIETQKYPTYPEAEK", "note": "[V13Q]", "protein stability index": 4.49}, {"variant": "YPSYKVREKIETSKYPTYPEAEK", "note": "[V13S]", "protein stability index": 4.69}, {"variant": "YPSYKVREKIETAKYPTYPEAEK", "note": "[V13A]", "protein stability index": 4.7}, {"variant": "YPSYKVREKIETIKYPTYPEAEK", "note": "[V13I]", "protein stability index": 4.29}, {"variant": "YPSYKVREKIETPKYPTYPEAEK", "note": "[V13P]", "protein stability index": 4.24}, {"variant": "YPSYKVREKIETKKYPTYPEAEK", "note": "[V13K]", "protein stability index": 4.62}, {"variant": "YPSYKVREKIETEKYPTYPEAEK", "note": "[V13E]", "protein stability index": 4.79}, {"variant": "YPSYKRREKIETVKYPTYPEAEK", "note": "[V6R]", "protein stability index": 4.36}, {"variant": "YPSYKNREKIETVKYPTYPEAEK", "note": "[V6N]", "protein stability index": 4.62}, {"variant": "YPSYKLREKIETVKYPTYPEAEK", "note": "[V6L]", "protein stability index": 4.69}, {"variant": "YPSYKSREKIETVKYPTYPEAEK", "note": "[V6S]", "protein stability index": 4.48}, {"variant": "YPSYKTREKIETVKYPTYPEAEK", "note": "[V6T]", "protein stability index": 4.25}, {"variant": "YPSYKYREKIETVKYPTYPEAEK", "note": "[V6Y]", "protein stability index": 4.15}, {"variant": "YPSYKPREKIETVKYPTYPEAEK", "note": "[V6P]", "protein stability index": 4.62}, {"variant": "YPSYKMREKIETVKYPTYPEAEK", "note": "[V6M]", "protein stability index": 3.86}, {"variant": "YPSYKQREKIETVKYPTYPEAEK", "note": "[V6Q]", "protein stability index": 4.13}, {"variant": "YPSYKVREKIETVAYPTYPEAEK", "note": "[K14A]", "protein stability index": 4.17}, {"variant": "YPSYKVREKIETVIYPTYPEAEK", "note": "[K14I]", "protein stability index": 3.88}, {"variant": "YPSYKVREKIETVLYPTYPEAEK", "note": "[K14L]", "protein stability index": 2.97}, {"variant": "YPSYKVREKIETVFYPTYPEAEK", "note": "[K14F]", "protein stability index": 2.73}, {"variant": "YPSYKVREKIETVQYPTYPEAEK", "note": "[K14Q]", "protein stability index": 4.21}, {"variant": "YPSYKVREKIETVTYPTYPEAEK", "note": "[K14T]", "protein stability index": 3.61}, {"variant": "YPSYKVREKIETVVYPTYPEAEK", "note": "[K14V]", "protein stability index": 3.65}, {"variant": "YPSYKVREKIETVYYPTYPEAEK", "note": "[K14Y]", "protein stability index": 3.43}, {"variant": "YPSYKVREKIETVMYPTYPEAEK", "note": "[K14M]", "protein stability index": 3.85}, {"variant": "YPSYKVREKIETVHYPTYPEAEK", "note": "[K14H]", "protein stability index": 3.95}, {"variant": "YPSYKVREKIETVGYPTYPEAEK", "note": "[K14G]", "protein stability index": 4.98}, {"variant": "YPSYKVREKIETVCYPTYPEAEK", "note": "[K14C]", "protein stability index": 4.18}, {"variant": "YPSYKVREKIETVRYPTYPEAEK", "note": "[K14R]", "protein stability index": 4.27}, {"variant": "YPSYKVREKIETVEYPTYPEAEK", "note": "[K14E]", "protein stability index": 4.03}, {"variant": "YPSYKVREKIETVSYPTYPEAEK", "note": "[K14S]", "protein stability index": 4.44}, {"variant": "YPSYKVREKIETVNYPTYPEAEK", "note": "[K14N]", "protein stability index": 4.62}, {"variant": "YPSYKVREKIETVPYPTYPEAEK", "note": "[K14P]", "protein stability index": 4.09}, {"variant": "YPSYKVREKIETVWYPTYPEAEK", "note": "[K14W]", "protein stability index": 1.68}, {"variant": "YPSYKVREKWETVKYPTYPEAEK", "note": "[I10W]", "protein stability index": 2.87}, {"variant": "YPSYKVREKQETVKYPTYPEAEK", "note": "[I10Q]", "protein stability index": 4.17}, {"variant": "YPSYKVREKNETVKYPTYPEAEK", "note": "[I10N]", "protein stability index": 4.87}, {"variant": "YPSYKVREKKETVKYPTYPEAEK", "note": "[I10K]", "protein stability index": 4.57}, {"variant": "YPSYKVREKFETVKYPTYPEAEK", "note": "[I10F]", "protein stability index": 4.36}, {"variant": "YPSYKVREKEETVKYPTYPEAEK", "note": "[I10E]", "protein stability index": 4.61}, {"variant": "YPSYKVREKAETVKYPTYPEAEK", "note": "[I10A]", "protein stability index": 4.19}, {"variant": "YPSYKVREKDETVKYPTYPEAEK", "note": "[I10D]", "protein stability index": 4.71}, {"variant": "YPSYKVREKYETVKYPTYPEAEK", "note": "[I10Y]", "protein stability index": 4.29}, {"variant": "YPSYKVREKMETVKYPTYPEAEK", "note": "[I10M]", "protein stability index": 4.35}, {"variant": "YPSYKVREKRETVKYPTYPEAEK", "note": "[I10R]", "protein stability index": 4.56}, {"variant": "YPSYKVREKVETVKYPTYPEAEK", "note": "[I10V]", "protein stability index": 4.46}, {"variant": "YPSYKVREKSETVKYPTYPEAEK", "note": "[I10S]", "protein stability index": 4.46}, {"variant": "YPSYKVREKLETVKYPTYPEAEK", "note": "[I10L]", "protein stability index": 4.28}, {"variant": "YPSYKVREKCETVKYPTYPEAEK", "note": "[I10C]", "protein stability index": 4.21}, {"variant": "YPSYKVREKPETVKYPTYPEAEK", "note": "[I10P]", "protein stability index": 4.09}, {"variant": "YPSYKVREKTETVKYPTYPEAEK", "note": "[I10T]", "protein stability index": 4.97}, {"variant": "YPSYKVREKHETVKYPTYPEAEK", "note": "[I10H]", "protein stability index": 4.27}, {"variant": "YPSYKVREKIETVKYPDYPEAEK", "note": "[T17D]", "protein stability index": 3.7}, {"variant": "YPSYKVREKIETVKYPCYPEAEK", "note": "[T17C]", "protein stability index": 3.8}, {"variant": "YPSYKVREKIETVKYPAYPEAEK", "note": "[T17A]", "protein stability index": 4.56}, {"variant": "YPSYKVRIKIETVKYPTYPEAEK", "note": "[E8I]", "protein stability index": 2.62}, {"variant": "YPSYKVRMKIETVKYPTYPEAEK", "note": "[E8M]", "protein stability index": 2.69}, {"variant": "YPSYKVRFKIETVKYPTYPEAEK", "note": "[E8F]", "protein stability index": 2.02}, {"variant": "YPSYKVRGKIETVKYPTYPEAEK", "note": "[E8G]", "protein stability index": 3.92}, {"variant": "YPSYKVRPKIETVKYPTYPEAEK", "note": "[E8P]", "protein stability index": 3.72}, {"variant": "YPSYKVRKKIETVKYPTYPEAEK", "note": "[E8K]", "protein stability index": 3.59}, {"variant": "YPSYKVRHKIETVKYPTYPEAEK", "note": "[E8H]", "protein stability index": 4.28}, {"variant": "YPSYKVRCKIETVKYPTYPEAEK", "note": "[E8C]", "protein stability index": 2.62}, {"variant": "YPSYKVRWKIETVKYPTYPEAEK", "note": "[E8W]", "protein stability index": 2.13}, {"variant": "YPSYKVRLKIETVKYPTYPEAEK", "note": "[E8L]", "protein stability index": 1.99}, {"variant": "YPSYKVRQKIETVKYPTYPEAEK", "note": "[E8Q]", "protein stability index": 4.01}, {"variant": "YPSYKVRNKIETVKYPTYPEAEK", "note": "[E8N]", "protein stability index": 4.27}, {"variant": "YPSYKVRSKIETVKYPTYPEAEK", "note": "[E8S]", "protein stability index": 3.57}, {"variant": "YPSYKVRDKIETVKYPTYPEAEK", "note": "[E8D]", "protein stability index": 4.26}, {"variant": "YPSYKVRTKIETVKYPTYPEAEK", "note": "[E8T]", "protein stability index": 3.43}, {"variant": "YPSYKVRVKIETVKYPTYPEAEK", "note": "[E8V]", "protein stability index": 1.75}, {"variant": "YPSYKVRRKIETVKYPTYPEAEK", "note": "[E8R]", "protein stability index": 3.74}, {"variant": "YPSYKVRYKIETVKYPTYPEAEK", "note": "[E8Y]", "protein stability index": 2.28}, {"variant": "YPSYKVRAKIETVKYPTYPEAEK", "note": "[E8A]", "protein stability index": 3.96}, {"variant": "YPSYKVREKIETVKMPTYPEAEK", "note": "[Y15M]", "protein stability index": 4.48}, {"variant": "YPSYKVREKIETVKSPTYPEAEK", "note": "[Y15S]", "protein stability index": 4.64}, {"variant": "YPSYKVREKIETVKFPTYPEAEK", "note": "[Y15F]", "protein stability index": 4.49}, {"variant": "YPSYKVREKIETVKPPTYPEAEK", "note": "[Y15P]", "protein stability index": 4.45}, {"variant": "YPSYKVREKIETVKLPTYPEAEK", "note": "[Y15L]", "protein stability index": 4.33}, {"variant": "YPSYKVREKIETVKVPTYPEAEK", "note": "[Y15V]", "protein stability index": 4.18}, {"variant": "YPSYKVREKIETVKIPTYPEAEK", "note": "[Y15I]", "protein stability index": 4.58}, {"variant": "YPSYKVREKIETVKWPTYPEAEK", "note": "[Y15W]", "protein stability index": 2.88}, {"variant": "YPSYKVREKIETVKDPTYPEAEK", "note": "[Y15D]", "protein stability index": 5.2}, {"variant": "YPSYKVREKIETVKTPTYPEAEK", "note": "[Y15T]", "protein stability index": 3.77}, {"variant": "YPSYKVREKIETVKAPTYPEAEK", "note": "[Y15A]", "protein stability index": 3.39}]}]}
